Source: paper PMC9943673

Legend:
TIN2 = TIN2 (UniProt Q9BSI4); assay: biotin-peptide pull-down from nuclear extract, MS; settings: reference: unphosphorylated peptide (TRF2-CTRL); sites S410
[1] = molecular target: TRF2-CTRL peptide labelled at the N-terminus with carboxyfluorescein (FAM) (human); assay: fluorescence polarisation; fluorescence anisotropy; 3 nM FAM-peptide titrated with TIN2 to 500 nM; 50 mM NaCl, 50 mM phosphate buffer pH 7.0, 25 C
[2] = molecular target: TRF2-pS410 peptide labelled at the N-terminus with carboxyfluorescein (FAM) (human); assay: as above
Sequence of TRF2-pS410 peptide labelled at the N-terminus with carboxyfluorescein (FAM) (human) (Q15554 401-420): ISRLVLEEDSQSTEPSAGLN

TRF2 (from UniProt Q15554) pS410 peptide
binding against the reference (TIN2): stronger

purified human TIN2 (from UniProt Q9BSI4 1-451) (natural protein)
Kd [1]: 240 nM | Kd [2]: 180 nM
